The values that follow come from the Human Domainome abundance scans (Beltran et al. 2025).

± gives the uncertainty stated by the source.

Sequences and labels used below:
B1: Double-stranded RNA-specific adenosine deaminase, residues 296 to 358; numbered along this chain, P55265 (parent)
chain: MAEIKEKICDYLFNVSDSSALNLAKNIGLTKARDINAVLIDMERQGDVYRQGTTPPIWHLTDK

The data set covers variants of B1. As to the kind of experiment: abundance fitness (aPCA) (normalised: wild type 0, dead -1); higher = more abundant; growth selection in yeast, the domain comes from the species named. The conditions noted are these: Homo sapiens.
Consider MAEIKAKICDYLFNVSDSSALNLAKNIGLTKARDINAVLIDMERQGDVYRQGTTPPIWHLTDK [E6A], for which the abundance fitness was -0.148 ± 0.055.
As for MAEQKEKICDYLFNVSDSSALNLAKNIGLTKARDINAVLIDMERQGDVYRQGTTPPIWHLTDK [I4Q], the abundance fitness was -0.327 ± 0.068.
For the variant MAEEKEKICDYLFNVSDSSALNLAKNIGLTKARDINAVLIDMERQGDVYRQGTTPPIWHLTDK [I4E], the abundance fitness was -0.287 ± 0.075.
As for MAETKEKICDYLFNVSDSSALNLAKNIGLTKARDINAVLIDMERQGDVYRQGTTPPIWHLTDK [I4T], the figure is -0.24 ± 0.054; as for MAEGKEKICDYLFNVSDSSALNLAKNIGLTKARDINAVLIDMERQGDVYRQGTTPPIWHLTDK [I4G], -0.435 ± 0.043; as for MAEWKEKICDYLFNVSDSSALNLAKNIGLTKARDINAVLIDMERQGDVYRQGTTPPIWHLTDK [I4W], -0.666 ± 0.07.
In the case of MAELKEKICDYLFNVSDSSALNLAKNIGLTKARDINAVLIDMERQGDVYRQGTTPPIWHLTDK [I4L], the abundance fitness came out at 0.146 ± 0.03.
With MAEVKEKICDYLFNVSDSSALNLAKNIGLTKARDINAVLIDMERQGDVYRQGTTPPIWHLTDK [I4V], the abundance fitness is -0.293 ± 0.042.
As for MAEKKEKICDYLFNVSDSSALNLAKNIGLTKARDINAVLIDMERQGDVYRQGTTPPIWHLTDK [I4K], the abundance fitness was -0.2 ± 0.084.
As for MAESKEKICDYLFNVSDSSALNLAKNIGLTKARDINAVLIDMERQGDVYRQGTTPPIWHLTDK [I4S], the figure is -0.311 ± 0.04; as for MAENKEKICDYLFNVSDSSALNLAKNIGLTKARDINAVLIDMERQGDVYRQGTTPPIWHLTDK [I4N], -0.327 ± 0.059; as for MAEDKEKICDYLFNVSDSSALNLAKNIGLTKARDINAVLIDMERQGDVYRQGTTPPIWHLTDK [I4D], -0.121 ± 0.058.
On to MAEYKEKICDYLFNVSDSSALNLAKNIGLTKARDINAVLIDMERQGDVYRQGTTPPIWHLTDK [I4Y], for which the abundance fitness was -0.398 ± 0.063.
Turning to MAEPKEKICDYLFNVSDSSALNLAKNIGLTKARDINAVLIDMERQGDVYRQGTTPPIWHLTDK [I4P], the abundance fitness was -0.551 ± 0.061.
Consider MAECKEKICDYLFNVSDSSALNLAKNIGLTKARDINAVLIDMERQGDVYRQGTTPPIWHLTDK [I4C], for which the abundance fitness is -0.995 ± 0.092.
Take MAEMKEKICDYLFNVSDSSALNLAKNIGLTKARDINAVLIDMERQGDVYRQGTTPPIWHLTDK [I4M]: the abundance fitness was -0.217 ± 0.056.
With MAEAKEKICDYLFNVSDSSALNLAKNIGLTKARDINAVLIDMERQGDVYRQGTTPPIWHLTDK [I4A], the abundance fitness is -0.37 ± 0.048.
Turning to MAEFKEKICDYLFNVSDSSALNLAKNIGLTKARDINAVLIDMERQGDVYRQGTTPPIWHLTDK [I4F], the abundance fitness was -0.649 ± 0.082.
Turning to MAEHKEKICDYLFNVSDSSALNLAKNIGLTKARDINAVLIDMERQGDVYRQGTTPPIWHLTDK [I4H], the abundance fitness is -0.227 ± 0.064.
For MAERKEKICDYLFNVSDSSALNLAKNIGLTKARDINAVLIDMERQGDVYRQGTTPPIWHLTDK [I4R], the abundance fitness was -0.387 ± 0.043.
In the case of MAEIMEKICDYLFNVSDSSALNLAKNIGLTKARDINAVLIDMERQGDVYRQGTTPPIWHLTDK [K5M], the abundance fitness is -0.574 ± 0.082.
In the case of MAEIGEKICDYLFNVSDSSALNLAKNIGLTKARDINAVLIDMERQGDVYRQGTTPPIWHLTDK [K5G] it was -0.616 ± 0.084.
As for MAEIYEKICDYLFNVSDSSALNLAKNIGLTKARDINAVLIDMERQGDVYRQGTTPPIWHLTDK [K5Y], the abundance fitness was -0.79 ± 0.11.
For the variant MAEINEKICDYLFNVSDSSALNLAKNIGLTKARDINAVLIDMERQGDVYRQGTTPPIWHLTDK [K5N], the abundance fitness was -0.555 ± 0.097.
As to MAEIAEKICDYLFNVSDSSALNLAKNIGLTKARDINAVLIDMERQGDVYRQGTTPPIWHLTDK [K5A], the abundance fitness was -0.428 ± 0.058.
As to MAEIEEKICDYLFNVSDSSALNLAKNIGLTKARDINAVLIDMERQGDVYRQGTTPPIWHLTDK [K5E], the abundance fitness is -0.666 ± 0.22.
For the variant MAEIREKICDYLFNVSDSSALNLAKNIGLTKARDINAVLIDMERQGDVYRQGTTPPIWHLTDK [K5R], the abundance fitness was -0.118 ± 0.052.
Consider MAEIHEKICDYLFNVSDSSALNLAKNIGLTKARDINAVLIDMERQGDVYRQGTTPPIWHLTDK [K5H], for which the abundance fitness was -0.68 ± 0.1.
As to MAEIIEKICDYLFNVSDSSALNLAKNIGLTKARDINAVLIDMERQGDVYRQGTTPPIWHLTDK [K5I], the abundance fitness is -0.512 ± 0.081.
In the case of MAEITEKICDYLFNVSDSSALNLAKNIGLTKARDINAVLIDMERQGDVYRQGTTPPIWHLTDK [K5T] it was -0.601 ± 0.077.
For MAEIPEKICDYLFNVSDSSALNLAKNIGLTKARDINAVLIDMERQGDVYRQGTTPPIWHLTDK [K5P], the abundance fitness is -0.486 ± 0.069.
As to MAEIFEKICDYLFNVSDSSALNLAKNIGLTKARDINAVLIDMERQGDVYRQGTTPPIWHLTDK [K5F], the abundance fitness was -0.449 ± 0.066.
Consider MAEIWEKICDYLFNVSDSSALNLAKNIGLTKARDINAVLIDMERQGDVYRQGTTPPIWHLTDK [K5W], for which the abundance fitness was -0.465 ± 0.077.
For MAEIVEKICDYLFNVSDSSALNLAKNIGLTKARDINAVLIDMERQGDVYRQGTTPPIWHLTDK [K5V], the abundance fitness is -0.652 ± 0.073.
In the case of MAEICEKICDYLFNVSDSSALNLAKNIGLTKARDINAVLIDMERQGDVYRQGTTPPIWHLTDK [K5C], the abundance fitness is -0.924 ± 0.15.
As for MAEIQEKICDYLFNVSDSSALNLAKNIGLTKARDINAVLIDMERQGDVYRQGTTPPIWHLTDK [K5Q], the figure is -0.28 ± 0.065.
Consider MAVIKEKICDYLFNVSDSSALNLAKNIGLTKARDINAVLIDMERQGDVYRQGTTPPIWHLTDK [E3V], for which the abundance fitness is -0.471 ± 0.081.
As for MASIKEKICDYLFNVSDSSALNLAKNIGLTKARDINAVLIDMERQGDVYRQGTTPPIWHLTDK [E3S], the abundance fitness is -0.213 ± 0.045.
MAQIKEKICDYLFNVSDSSALNLAKNIGLTKARDINAVLIDMERQGDVYRQGTTPPIWHLTDK [E3Q]: the abundance fitness is -0.368 ± 0.11.
As for MAWIKEKICDYLFNVSDSSALNLAKNIGLTKARDINAVLIDMERQGDVYRQGTTPPIWHLTDK [E3W], the figure is -0.147 ± 0.054; as for MAYIKEKICDYLFNVSDSSALNLAKNIGLTKARDINAVLIDMERQGDVYRQGTTPPIWHLTDK [E3Y], -0.298 ± 0.059.
Take MARIKEKICDYLFNVSDSSALNLAKNIGLTKARDINAVLIDMERQGDVYRQGTTPPIWHLTDK [E3R]: the abundance fitness is -0.334 ± 0.05.
As for MATIKEKICDYLFNVSDSSALNLAKNIGLTKARDINAVLIDMERQGDVYRQGTTPPIWHLTDK [E3T], the abundance fitness is -0.159 ± 0.059.
